Changes are numbered by the printed parent chain.
B1: SA-56-94 (antibody, V domains shown)
VH: EVQLVESGGGVVQPGRSLRLSCAASGFTFSYYGMSWVRQAPGKGLEWVASIWVDGSNKYYADSVKGRFTISRDNSKNTLYLQMNSLRAEDTAVYYCAVGTETYSGPNWFDPWGQGTLVTVSS
VL: DIQMTQSPSSVSASVGDRVTITCRASQGISSWLAWYQQKPGKAPKLLIYAASSLQSGVPSRFSGSGSGTDFTLTISSLQPEDFATYYCQQAIYFPITFGGGTKVEIK
notes: IgG; also called SA-94
B2: SA-56-89 (antibody, V domains shown)
VH: B1 VH with R16G, I70V, N84D, V98R, T100V
VL: B1 VL
notes: IgG; also called SA-89
B3: SA-56-88 (antibody, V domains shown)
VH: B1 VH with V64A, V98E, T100K
VL: B1 VL
notes: IgG
B4: SA-56-95 (antibody, V domains shown)
VH: B1 VH with V5L, S30A, Y31H, S35A, S50V, N57P, G99A, T100R
VL: B1 VL
notes: IgG
B5: SA-56-92 (antibody, V domains shown)
VH: B1 VH with N84D, V98T, T100V
VL: B1 VL
notes: IgG
B6: SA-56-96 (antibody, V domains shown)
VH: B1 VH with V5L, Y31S, G33A, S35G, S50V, N57L, V98T, T100R
VL: B1 VL
notes: IgG
B7: SA-56-90 (antibody, V domains shown)
VH: B1 VH with E1Q, F27S, Y31H, N84D, V98R, T100V
VL: B1 VL
notes: IgG; also called SA-90
B8: SA-56-93 (antibody, V domains shown)
VH: B1 VH with V5L, T78A, G99S, T100R
VL: B1 VL
notes: IgG
B9: SA-56-91 (antibody, V domains shown)
VH: B1 VH with S30A, Y31H, S35A, V98T, G99A, T100V
VL: B1 VL
notes: IgG
B10: SA-8-64 Fab (Fab, V domains shown)
VH: QVQLVESGGGLVKPGGSLRLSCAASGFTFSSYSMHWVRQAPGKGLEWVSSISSSDSWIYYADSVKGRFTISRDNAKNSLYLQMNSLRAEDTAVYYCAKEPRSYWHGYGMDVWGQGTTVTVSS
VL: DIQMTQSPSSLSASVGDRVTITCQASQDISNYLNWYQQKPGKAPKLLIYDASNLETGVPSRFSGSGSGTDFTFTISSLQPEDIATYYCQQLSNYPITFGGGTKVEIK
notes: papain Fab
B11: SA-8-62 Fab (Fab, V domains shown)
VH: B10 VH with N84D, P100R, R101V, S102D
VL: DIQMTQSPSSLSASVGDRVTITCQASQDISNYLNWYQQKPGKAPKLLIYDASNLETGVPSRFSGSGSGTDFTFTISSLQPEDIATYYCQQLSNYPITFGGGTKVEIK
notes: papain Fab
B12: SA-8-67 Fab (Fab, V domains shown)
VH: B10 VH with Q1E, D55P, W57H
VL: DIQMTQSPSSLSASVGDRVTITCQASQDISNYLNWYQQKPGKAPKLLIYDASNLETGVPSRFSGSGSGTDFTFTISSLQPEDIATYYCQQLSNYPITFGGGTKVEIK
notes: papain Fab
B13: SA-13-68 Fab (Fab, V domains shown)
VH: EVQLLESGGGLVQPGGSLRLSCAASGFTFTEYAMSWVRQAPGKRLEWVSAISGSGGSTYYADSVKGRFTISRDNSKNTLYLQMSSLRAEDTAVYYCARDNIQWGPHFYWGQGTLVTVSS
VL: B1 VL with V11L, G28S, W32Y, A34N, A91G, I92Y, Y93I, F94Y, I96P
notes: papain Fab

What follows are binders tested against T1, human SIRPA Fc fusion antigen (human, UniProt P78324 31-373) (assay: ForteBio IgG avid;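 also: ForteBio sensor-based avid binding of anti-SIRPA antibodies in IgG format, with the binding partner in solution at 100 nM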).
T1 construct: heterologous signal peptide; not shown: human IgG1 Fc

Row | Kd | Binder
1 | 0.566 nM | B1
2 | 0.415 nM | B2
3 | 0.379 nM | B3
4 | 1.06 nM | B4
5 | 0.365 nM | B5
6 | 1.04 nM | B6
7 | 0.378 nM | B7
8 | 0.862 nM | B8
9 | 0.412 nM | B9

Each binder was assayed against T2, human SIRPβ1 Fc fusion antigen (human, UniProt O00241 30-371) (assay: ForteBio IgG avid;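 also: ForteBio sensor-based avid binding of anti-SIRPA antibodies in IgG format, with the binding partner in solution at 100 nM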).
T2 construct: not shown: human IgG1 Fc
T2 sequence (O00241 30-371 limits assumed): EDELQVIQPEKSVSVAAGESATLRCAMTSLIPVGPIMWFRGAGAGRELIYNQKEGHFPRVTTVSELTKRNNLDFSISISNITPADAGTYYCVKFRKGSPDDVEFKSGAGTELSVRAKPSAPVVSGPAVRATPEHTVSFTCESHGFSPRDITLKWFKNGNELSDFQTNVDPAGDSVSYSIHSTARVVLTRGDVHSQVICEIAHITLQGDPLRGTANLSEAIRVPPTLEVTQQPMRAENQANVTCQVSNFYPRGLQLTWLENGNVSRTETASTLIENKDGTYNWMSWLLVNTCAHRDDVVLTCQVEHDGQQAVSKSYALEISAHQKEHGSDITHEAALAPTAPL

Row | binding result | Binder
10 | no binding (tested: 100 nM) | B1
11 | no binding (tested: 100 nM) | B2
12 | no binding (tested: 100 nM) | B3
13 | no binding (tested: 100 nM) | B4
14 | no binding (tested: 100 nM) | B5
15 | no binding (tested: 100 nM) | B6
16 | no binding (tested: 100 nM) | B7
17 | no binding (tested: 100 nM) | B8
18 | no binding (tested: 100 nM) | B9

The binders below were run against T1, human SIRPA Fc fusion antigen (assay: ForteBio Fab monovalent).
Description: Briefly, ForteBio affinity measurements were performed by loading immunoglobulins (IgGs) on-line onto AHQ sensors. Sensors were equilibrated off-line in assay buffer for 30 min and then monitored on-line for 60 seconds for baseline establishment. For avid binding measurement, sensors with loaded IgGs were exposed to 100 nM antigen (human SIRPA or SIRPβ1 Fc fusion) for 3 min, afterwards they were transferred to assay buffer for 3 min for off-rate measurement. […] Monovalent binding measurements were obtained by loading human SIRPA Fc fusion antigens to AHQ sensor and followed by exposure to 100 nM anti-SIRPA antibody Fab.
Additional monovalent measurements were made by loading biotinylated human SIRPA monomer to SA sensor followed by exposure to 100 nM Fab in solution. Kinetics data were fit using a 1:1 binding model in the data analysis software provided by ForteBio.

Row | Kd | Binder
19 | 27.7 nM | B10
20 | 8.92 nM | B11
21 | 131 nM | B12
22 | 81.5 nM | B13

From US20240270866A1 (Alector, published 2024)
